Test in all cases: purified protein
What all share (format): biochemical, Trichomonas vaginalis
What all share (settings): NADPH co-substrate, 100 mM potassium phosphate pH 5.5, 37 °C

The test system of data set [1] is Cc1cc2nc3c(=O)[nH]c(=O)nc-3n(C[C@H](O)[C@H](O)[C@H](O)CO)c2cc1C.
Data set [2] has as its system Cc1cc2nc3c(=O)[nH]c(=O)nc-3n(C[C@H](O)[C@H](O)[C@H](O)COP(=O)(O)O)c2cc1C.
In data set [3] the test system is Cc1cc2nc3c(=O)[nH]c(=O)nc-3n(C[C@H](O)[C@H](O)[C@H](O)COP(=O)(O)OP(=O)(O)OC[C@H]3O[C@@H](n4cnc5c(N)ncnc54)[C@H](O)[C@@H]3O)c2cc1C.

By Km is commonly meant the substrate concentration at which the rate is half of its maximum. For “Flavin reductase 5 (FR5) (Trichomonas vaginalis G3)”, the Km came to 94.4 ± 11.5 µM in data set [1], 186.9 ± 30.3 µM in data set [2] and 267.4 ± 21.6 µM in data set [3].
Take “Flavin reductase 1 (FR1) (Trichomonas vaginalis G3)”: the Km in data set [2] was found to be 10 ± 1.4 µM; in data set [3] it was 16.5 ± 2.5 µM.
As for “Flavin reductase 6 (FR6) (Trichomonas vaginalis G3)”, the values for the Km in data set [1], in data set [2] and in data set [3] were 97.5 ± 28.8 µM, 160 ± 23.9 µM and 192.1 ± 12.2 µM, respectively.

Source of the values: paper PMC4437529.
